Data on 1 molecule can be found in patent US20080247951A1 (Genentech, published 2008).

Assay [1] deals with T1, murine Robo4 expressed endogenously on MS1 cells (mouse, UniProt Q8C310 28-1012).
T1 construct: whole, on cells
T1 sequence (looked up): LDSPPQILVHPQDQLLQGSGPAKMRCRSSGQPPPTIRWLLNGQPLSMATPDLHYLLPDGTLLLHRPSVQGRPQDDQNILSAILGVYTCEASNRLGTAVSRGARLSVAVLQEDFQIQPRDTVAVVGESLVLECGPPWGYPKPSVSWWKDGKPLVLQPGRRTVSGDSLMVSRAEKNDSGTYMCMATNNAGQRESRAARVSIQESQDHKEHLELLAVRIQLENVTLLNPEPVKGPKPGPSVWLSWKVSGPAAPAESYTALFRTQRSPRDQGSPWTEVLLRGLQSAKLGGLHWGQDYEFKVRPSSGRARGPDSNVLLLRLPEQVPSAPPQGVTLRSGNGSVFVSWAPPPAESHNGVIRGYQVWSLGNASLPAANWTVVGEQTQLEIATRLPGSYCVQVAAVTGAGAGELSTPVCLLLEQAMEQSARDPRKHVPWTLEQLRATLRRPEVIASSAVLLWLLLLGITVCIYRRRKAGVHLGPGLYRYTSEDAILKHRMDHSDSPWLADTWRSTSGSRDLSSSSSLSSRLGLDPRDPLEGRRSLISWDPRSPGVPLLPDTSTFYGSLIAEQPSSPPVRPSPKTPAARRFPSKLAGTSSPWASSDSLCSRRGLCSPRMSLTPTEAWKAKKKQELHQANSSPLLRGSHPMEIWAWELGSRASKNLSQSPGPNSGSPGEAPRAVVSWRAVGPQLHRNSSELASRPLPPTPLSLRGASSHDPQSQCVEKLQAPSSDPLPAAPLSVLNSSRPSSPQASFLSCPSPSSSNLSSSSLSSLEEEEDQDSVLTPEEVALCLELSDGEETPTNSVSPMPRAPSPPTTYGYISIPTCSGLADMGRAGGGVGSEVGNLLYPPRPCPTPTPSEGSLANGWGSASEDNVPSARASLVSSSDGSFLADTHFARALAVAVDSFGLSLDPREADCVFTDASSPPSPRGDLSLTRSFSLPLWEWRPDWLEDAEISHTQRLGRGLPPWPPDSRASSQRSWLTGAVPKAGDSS
As to the kind of experiment: FACS on MS1 cells, Alexa 488 detection.

The target in assay [2] is T2, human Robo4 expressed endogenously on HUVEC cells (human, UniProt Q8WZ75 28-1007).
T2 sequence: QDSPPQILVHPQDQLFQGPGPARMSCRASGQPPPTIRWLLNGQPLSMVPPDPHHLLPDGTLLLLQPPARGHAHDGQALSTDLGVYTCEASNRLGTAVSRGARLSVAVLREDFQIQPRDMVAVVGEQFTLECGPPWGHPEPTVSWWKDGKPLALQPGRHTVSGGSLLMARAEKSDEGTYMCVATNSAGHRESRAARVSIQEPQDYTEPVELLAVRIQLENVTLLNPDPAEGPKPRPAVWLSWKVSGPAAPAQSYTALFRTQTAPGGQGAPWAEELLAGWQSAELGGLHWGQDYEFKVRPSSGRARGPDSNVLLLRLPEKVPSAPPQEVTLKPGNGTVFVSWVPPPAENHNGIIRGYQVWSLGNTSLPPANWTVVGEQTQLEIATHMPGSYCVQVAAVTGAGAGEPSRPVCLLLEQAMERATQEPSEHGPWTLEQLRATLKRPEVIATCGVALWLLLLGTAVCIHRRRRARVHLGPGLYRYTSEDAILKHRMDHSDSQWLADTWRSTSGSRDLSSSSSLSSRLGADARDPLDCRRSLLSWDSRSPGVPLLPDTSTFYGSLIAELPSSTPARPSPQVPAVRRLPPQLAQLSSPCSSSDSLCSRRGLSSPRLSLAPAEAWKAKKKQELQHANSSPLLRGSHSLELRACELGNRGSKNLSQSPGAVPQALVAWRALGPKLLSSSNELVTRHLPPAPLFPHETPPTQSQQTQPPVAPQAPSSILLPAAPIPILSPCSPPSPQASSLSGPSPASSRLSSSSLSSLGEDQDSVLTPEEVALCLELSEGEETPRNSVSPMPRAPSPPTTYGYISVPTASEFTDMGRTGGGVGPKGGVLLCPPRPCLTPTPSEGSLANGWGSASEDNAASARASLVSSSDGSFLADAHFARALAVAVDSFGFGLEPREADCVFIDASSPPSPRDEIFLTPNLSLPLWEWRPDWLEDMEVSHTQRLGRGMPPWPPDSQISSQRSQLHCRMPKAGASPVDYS
As to the kind of experiment: FACS on HUVEC cells, Alexa 488 detection.

B1: anti-Robo4 antibody YW71.22 (full length) (antibody, V domains shown)
VH: EVQLVESGGGLVQPGGSLRLSCAASGFTINGYYIHWVRQAPGKGLEWVGFIYPAGGDTDYADSVKGRFTISADTSKNTAYLQMNSLRAEDTAVYYCARLIGNKFGWSSYGMDYWGQGTLVTVSS
VL: DIQMTQSPSSLSASVGDRVTITCRASQDVSTAVAWYQQKPGKAPKLLIYSASFLYSGVPSRFSGSGSGTDFTLTISSLQPEDFATTYCQQSYTTPPTFGQGTKVEIKR
notes: also called parent antibody
In the case of B1, the binding result in assay [1] and in assay [2] was “binds” throughout.
